Results reported in article PMC8809517, “Cofactor-independent RNA editing by a synthetic S-type PPR protein”.

T1: GFP-9S library array, motif 4 ND N98Q;D124N (synthetic construct, N98Q;D124N)
T1 chain: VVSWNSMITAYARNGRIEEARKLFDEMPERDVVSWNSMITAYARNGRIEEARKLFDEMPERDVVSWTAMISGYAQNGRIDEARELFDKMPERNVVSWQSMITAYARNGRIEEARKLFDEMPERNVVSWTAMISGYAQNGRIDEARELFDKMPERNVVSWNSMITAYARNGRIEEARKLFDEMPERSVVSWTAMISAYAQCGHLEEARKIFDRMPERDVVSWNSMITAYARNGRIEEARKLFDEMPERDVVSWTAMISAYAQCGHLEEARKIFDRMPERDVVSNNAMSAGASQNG

T2: GFP-9S library array, motif 4 ND N98Y;D124E (synthetic construct, N98Y;D124E)
T2 chain: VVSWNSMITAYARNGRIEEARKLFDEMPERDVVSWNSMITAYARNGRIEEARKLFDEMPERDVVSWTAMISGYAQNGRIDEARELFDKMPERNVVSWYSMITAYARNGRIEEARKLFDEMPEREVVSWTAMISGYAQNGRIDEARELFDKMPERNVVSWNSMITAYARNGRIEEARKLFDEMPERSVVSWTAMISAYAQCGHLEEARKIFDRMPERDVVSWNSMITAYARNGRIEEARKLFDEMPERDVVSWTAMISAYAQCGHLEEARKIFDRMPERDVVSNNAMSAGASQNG

T3: GFP-9S library array, motif 4 ND N98S;D124G (synthetic construct, N98S;D124G)
T3 chain: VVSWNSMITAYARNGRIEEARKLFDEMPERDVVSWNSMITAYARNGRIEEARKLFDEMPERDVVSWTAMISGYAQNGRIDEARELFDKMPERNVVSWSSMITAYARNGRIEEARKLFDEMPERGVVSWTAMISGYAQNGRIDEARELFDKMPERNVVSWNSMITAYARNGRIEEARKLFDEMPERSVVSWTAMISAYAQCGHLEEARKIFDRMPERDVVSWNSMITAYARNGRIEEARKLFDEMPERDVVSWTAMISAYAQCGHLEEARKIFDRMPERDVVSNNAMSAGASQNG

T4: GFP-9S library array, motif 4 ND N98E;D124E (synthetic construct, N98E;D124E)
T4 chain: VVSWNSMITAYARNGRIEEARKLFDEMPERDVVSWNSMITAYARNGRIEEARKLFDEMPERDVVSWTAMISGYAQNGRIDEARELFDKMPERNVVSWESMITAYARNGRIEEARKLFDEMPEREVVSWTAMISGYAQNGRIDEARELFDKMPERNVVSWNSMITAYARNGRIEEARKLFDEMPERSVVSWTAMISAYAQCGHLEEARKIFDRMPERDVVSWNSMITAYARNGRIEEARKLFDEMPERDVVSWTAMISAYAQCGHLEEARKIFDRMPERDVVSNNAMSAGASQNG

T5: GFP-9S library array, motif 4 ND N98G;D124R (synthetic construct, N98G;D124R)
T5 chain: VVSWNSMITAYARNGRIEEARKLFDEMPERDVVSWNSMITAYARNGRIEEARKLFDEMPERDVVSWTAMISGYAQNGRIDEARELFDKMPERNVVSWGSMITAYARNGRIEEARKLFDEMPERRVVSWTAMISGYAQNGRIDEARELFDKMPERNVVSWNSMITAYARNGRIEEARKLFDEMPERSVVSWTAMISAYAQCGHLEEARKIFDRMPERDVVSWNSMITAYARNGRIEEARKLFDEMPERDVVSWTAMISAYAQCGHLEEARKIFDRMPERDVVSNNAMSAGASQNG


Assays:
Assay in all cases: high-throughput RNA pulldown from lysate on Ni-NTA beads; HRP: 50 mM Tris pH 8, 150 mM NaCl, 1 mM beta-mercaptoethanol, 50 ug/ml BSA, 3 ug/ml yeast RNA, 0.5% heparin; ITC and FP: Tris pH 8, 200 mM KCl, 5% glycerol; MST: 50 mM Tris pH 8, 200 mM NaCl, 1 mM DTT, BSA, heparin, 0.05% Tween 20
Details in all cases: tags: N-terminal His-eGFP
[1] = biological target: T1, GFP-9S library array, motif 4 ND …
[2] = biological target: T2, GFP-9S library array, motif 4 ND …
[3] = biological target: T3, GFP-9S library array, motif 4 ND …
[4] = biological target: T4, GFP-9S library array, motif 4 ND …
[5] = biological target: T5, GFP-9S library array, motif 4 ND …

Binder | Kd ([1]; label: 5' IRDye 800CW) [nM] | Kd ([2]; label: 5' IRDye 800CW) [nM] | Kd ([3]; label: 5' IRDye 800CW) [nM] | Kd ([4]; label: 5' IRDye 800CW) [nM] | Kd ([5]; label: 5' IRDye 800CW) [nM] | Kd ([1]; label: 5' Cy5) [nM] | Kd ([2]; label: 5' Cy5) [nM] | Kd ([3]; label: 5' Cy5) [nM] | Kd ([4]; label: 5' Cy5) [nM] | Kd ([5]; label: 5' Cy5) [nM]
AUUAAACGUGA (ssRNA) [IR-rpoA-A] | 118 | 488 | 122 | 387 | 158 |  |  |  |  | 
AUUAUACGUGA (ssRNA) [IR-rpoA-U] | 99.2 | 286 | 182 | 675 | 116 |  |  |  |  | 
AUUAGACGUGA (ssRNA) [Cy5-rpoA-G] |  |  |  |  |  | 68.6 | 169 | 157 | 169 | 115
AUUACACGUGA (ssRNA) [Cy5-rpoA] |  |  |  |  |  | 94.7 | 128 | 181 | 248 | 100
